Measurements: patent US20100248359A1 (Chugai, published 2010)

B1: M18D4 (antibody, human IgG1, kappa, V domains shown)
VH: EVQLQQSGTVLARPGASVKMSCKASGYTFTGYWMRWVKQRPGQGLEWIGAIYPGNSDTTYNQKFKGKAKLTAVTSVSTAYMELSSLTNEDSAVYYCSRSGDLTGGFAYWGQGTLVTVST
VL: DIVMTQAAFSNPVTLGTSTSISCRSSKSLLHSNGITYLYWYLQKPGQSPQLLIYQMSNLASGVPDRFSSSGSGTDFTLRISRVEAEDVGVYYCAQNLELPYTFGSGTKLEIKR
notes: Mouse monoclonal from hybridoma
B2: M5B9 (antibody, V domains shown)
VH: EVQLQQSGTVLARPGASVKMSCKASGYTFTGYWMHWVKQRPGQGLEWIGAIYPGNSDTNYNQKFKGKAKLTAVTSASTAYMELSSLTNEDAAVYHCTRSGDLTGGLAYWGQGTLVTVSA
VL: DIVMTQAAFSNPVTLGTSASISCRSSKSLLHSNGITYLYWFLQKPGQSPQLLIYQMSNLASGVPDRFSSSGSGTDFTLRISRVEAEDVGVYYCAQNLELPYTFGSGTKLEIK
notes: as for B1
B3: M10D2 (antibody, V domains shown)
VH: QVQLQQPGAELVKPGASVKLSCKASGYTFTSYWMHWVKQRPGQGLEWIGEIDPSDSYTYYNQKFRGKATLTVDKSSNTAYMQLSSLTSEDSAVYYCSRSNLGDGHYRFPAFPYWGQGTLVTVSA
VL: DIVLTQSPATLSVTPGDRVSLSCRASHSISNFLHWYPQKSHESPRLLIKYASQSISGIPSRFSGNGSGTDFTLSINSVETEDFGMYFCQQSNIWSLTFGAGTKLELK
notes: as for B1
B4: M13B3 (antibody, V domains shown)
VH: EVHLVESGGGLVKPGGSLKLSCAASGFTFSNYAMSWVRQTPEKRLEWVAAINNNGDDTYYLDTVKDRFTISRDNAKNTLYLQMSSLRSEDTALYYCVRQGGAYWGQGTLVTVSA
VL: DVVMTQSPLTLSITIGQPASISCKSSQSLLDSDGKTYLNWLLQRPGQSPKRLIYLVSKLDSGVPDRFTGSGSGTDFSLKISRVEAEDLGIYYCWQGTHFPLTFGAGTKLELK
notes: as for B1
B5: GC33 mouse-human chimeric antibody (antibody, V domains shown)
VH: QVQLQQSGAELVRPGASVKLSCKASGYTFTDYEMHWVKQTPVHGLKWIGALDPKTGDTAYSQKFKGKATLTADKSSSTAYMELRSLTSEDSAVYYCTRFYSYTYWGQGTLVTVSA
VL: DVVMTQTPLSLPVSLGDQASISCRSSQSLVHSNGNTYLHWYLQKPGQSPKLLIYKVSNRFSGVPDRFSGSGSGTDFTLKISRVEAEDLGVYFCSQNTHVPPTFGSGTKLEIK
notes: also called chimeric antibody GC33; mouse/mouse
B6: humanized GC33 H chain ver.c / L chain ver.a (antibody, V domains shown)
VH: QVQLVESGAEVKKPGASVKVSCKASGYTFTDYEMHWVRQAPGQGLEWMGALDPKTGDTAYSQKFKGRVTLTADESTSTAYMELSSLRSEDTAVYYCTRFYSYTYWGQGTLVTVSS
VL: DVVMTQSPLSLPVTPGEPASISCRSSQSLVHSNGNTYLHWYLQKPGQSPQLLIYKVSNRFSGVPDRFSGSGSGTDFTLKISRVEAEDVGVYYCSQNTHVPPTFGQGTKLEIK
B7: humanized GC33 ver.a/ver.a (antibody, V domains shown)
VH: QVQLVESGAEVKKPGASVKVSCKASGYTFTDYEMHWVRQAPGQGLEWMGALDPKTGDTAYSQKFKGRVTITADESTSTAYMELSSLRSEDTAVYYCARFYSYTYWGQGTLVTVSS
VL: DVVMTQSPLSLPVTPGEPASISCRSSQSLVHSNGNTYLHWYLQKPGQSPQLLIYKVSNRFSGVPDRFSGSGSGTDFTLKISRVEAEDVGVYYCSQNTHVPPTFGQGTKLEIK
notes: Human IgG (HEFg gamma1 vector) and human kappa constant regions
B8: humanized GC33 H chain ver.f / L chain ver.a (antibody, V domains shown)
VH: QVQLVESGAEVKKPGASVKVSCKASGYTFTDYEMHWVRQAPGQGLEWMGALDPKTGDTAYSQKFKGRVTLTADKSTSTAYMELSSLRSEDTAVYYCTRFYSYTYWGQGTLVTVSS
VL: DVVMTQSPLSLPVTPGEPASISCRSSQSLVHSNGNTYLHWYLQKPGQSPQLLIYKVSNRFSGVPDRFSGSGSGTDFTLKISRVEAEDVGVYYCSQNTHVPPTFGQGTKLEIK
B9: M6B1 (antibody, V domains shown)
VH: EVQLVESGGDLVKPGGSLKLSCAASGFTFSSYAMSWVRQTPEKRLEWVAAINSNGGTTYYPDTMKDRFTISRDNAKNTLYLQMSSLRSEDSALYYCTRHNGGYENYGWFAYWGQGTLVTVSA
VL: DIQMTQSPSSLSASLGGKVTITCKASQDINKNIIWYQHKPGKGPRLLIWYTSTLQPGIPSRFSGSGSGRDYSFSISNLEPEDIATYYCLQYDNLPRTFGGGTKLEIK
notes: as for B1

How the values were obtained:
[1] = target: T1, full-length human GPC3 (human, UniProt P51654 25-554); assay: flow cytometry, antibody at 5 µg/mL, HepG2 cells
T1 construct: On CHO (DXB11) or SK-HEP-1 (SK-03) transfectants; also used here for the GPC3 on the hepatoma lines HepG2 and HuH-7; also called human glypican 3
Procedure: (§1) Cells were dissociated with 1 mM EDTA pH 8.0 (GIBCO)/PBS and suspended in FACS buffer (1% FBS/PBS) at 1×10⁶ cells/mL. The suspension was dispensed to a Multiscreen-HV Filter Plate (Millipore) at 100 μL/well and the supernatant was removed by centrifugation. An anti-GPC3 antibody diluted to an appropriate concentration was added and reacted on ice for 30 minutes. The cells were washed once with FACS buffer and an FITC-labeled anti-mouse IgG antibody was added and reacted on ice for 30 minutes. After the reaction, the cells were centrifuged at 500 rpm for 1 minute, and the supernatant was removed. The cells were suspended in 400 μL of FACS buffer and subjected to flow cytometry. EPICS ELITE ESP (Beckman Coulter) was used as a flow cytometer. A gate was set on the living cell population with the histogram of forward scatter and side scatter.

[2] = target: T1, full-length human GPC3; assay: flow cytometry, antibody at 5 µg/mL, HuH-7 cells
Procedure: as §1

[3] = target: T2, soluble form of GPC3 core protein (human, UniProt P51654 25-563); assay: ELISA on plate coated with soluble GPC3 core protein
T2 construct: not shown: His tag added to the C-terminus
Target sequence in this assay (P51654 25-563 S495A/S509A, form in doubt): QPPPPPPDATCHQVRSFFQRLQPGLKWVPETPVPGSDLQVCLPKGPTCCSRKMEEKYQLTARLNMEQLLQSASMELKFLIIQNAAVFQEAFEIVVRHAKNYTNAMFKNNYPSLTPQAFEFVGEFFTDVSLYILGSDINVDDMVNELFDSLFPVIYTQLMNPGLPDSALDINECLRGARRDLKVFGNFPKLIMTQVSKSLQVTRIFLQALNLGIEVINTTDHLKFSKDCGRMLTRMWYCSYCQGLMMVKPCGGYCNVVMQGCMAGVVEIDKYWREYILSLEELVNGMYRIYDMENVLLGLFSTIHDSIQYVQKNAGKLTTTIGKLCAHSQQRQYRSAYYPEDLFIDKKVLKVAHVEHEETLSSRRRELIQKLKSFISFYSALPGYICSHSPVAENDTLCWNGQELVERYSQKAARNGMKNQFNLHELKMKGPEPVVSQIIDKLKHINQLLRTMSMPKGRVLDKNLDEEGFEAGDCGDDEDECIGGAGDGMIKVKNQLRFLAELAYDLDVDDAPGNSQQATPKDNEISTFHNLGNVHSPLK

[4] = target: T1, full-length human GPC3; assay: BIACORE; the form of GPC3 used is not given
[5] = target: T2, soluble form of GPC3 core protein; assay: competitive ELISA on coated soluble GPC3 core protein; labelled competitor biotin-M1E7;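 also: Biotin-labelled antibody added as 10 µL at 10 µg/mL for 1 h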
Target sequence in this assay (P51654 25-563 S495A/S509A, form in doubt): as above

[6] = target: T2, soluble form of GPC3 core protein; assay: competitive ELISA on coated soluble GPC3 core protein; labelled competitor biotin-M5B9;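 also: Biotin-labelled antibody added as 10 µL at 10 µg/mL for 1 h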
Target sequence in this assay (P51654 25-563 S495A/S509A, form in doubt): as above
Procedure: (§2) The antibodies were biotinylated using a Biotin Labeling Kit (Roche). The soluble form of GPC3 core protein was diluted to 1 μg/mL with the coating buffer and added to a plate at 100 μL/well and stored at 4° C. overnight to coat the plate. On the next day, 200 μL of the substrate buffer was added for blocking. The plate was left at 4° C. overnight or longer and an anti-GPC3 antibody was added to the plate at 100 μL/well and reacted at room temperature for 1 hour. After that, without washing of the plate, 10 μL of 10 μg/mL biotin-labeled anti-GPC3 antibody was added and further reacted for 1 hour. The plate was washed with 300 μL/well of the rinse buffer for 3 times. AP-streptavidin conjugate (ZYMED) was diluted to 1000-fold with the dilution buffer and added at 100 μL/well and reacted at room temperature for 1 hour. The plate was washed with 300 μL/well of the rinse buffer for 5 times.

[7] = target: T2, soluble form of GPC3 core protein; assay: competitive ELISA on coated soluble GPC3 core protein; labelled competitor biotin-M6B1;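 also: Biotin-labelled antibody added as 10 µL at 10 µg/mL for 1 h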
Target sequence in this assay (P51654 25-563 S495A/S509A, form in doubt): as above
Procedure: as §2

[8] = target: T2, soluble form of GPC3 core protein; assay: competitive ELISA on coated soluble GPC3 core protein; labelled competitor biotin-L9G11;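 also: Biotin-labelled antibody added as 10 µL at 10 µg/mL for 1 h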
Procedure: (§3) The obtained antibodies were classified according to the epitopes by a competitive ELISA. The antibodies were biotinylated using a Biotin Labeling Kit (Roche). The soluble form of GPC3 core protein was diluted to 1 μg/mL with the coating buffer and added to a plate at 100 μL/well and stored at 4° C. overnight to coat the plate. On the next day, 200 μL of the substrate buffer was added for blocking. The plate was left at 4° C. overnight or longer and an anti-GPC3 antibody was added to the plate at 100 μL/well and reacted at room temperature for 1 hour. After that, without washing of the plate, 10 μL of 10 μg/mL biotin-labeled anti-GPC3 antibody was added and further reacted for 1 hour. The plate was washed with 300 μL/well of the rinse buffer for 3 times. AP-streptavidin conjugate (ZYMED) was diluted to 1000-fold with the dilution buffer and added at 100 μL/well and reacted at room temperature for 1 hour. The plate was washed with 300 μL/well of the rinse buffer for 5 times.

[9] = target: T2, soluble form of GPC3 core protein; assay: competitive ELISA on coated soluble GPC3 core protein; labelled competitor biotin-M10D2;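 also: Biotin-labelled antibody added as 10 µL at 10 µg/mL for 1 h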
Target sequence in this assay (P51654 25-563 S495A/S509A, form in doubt): as above
Procedure: as §2

[10] = target: T2, soluble form of GPC3 core protein; assay: competitive ELISA on coated soluble GPC3 core protein; labelled competitor biotin-M11F1;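 also: Biotin-labelled antibody added as 10 µL at 10 µg/mL for 1 h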
Target sequence in this assay (P51654 25-563 S495A/S509A, form in doubt): as above
Procedure: as §2

[11] = target: T2, soluble form of GPC3 core protein; assay: competitive ELISA on coated soluble GPC3 core protein; labelled competitor biotin-M18D4;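 also: Biotin-labelled antibody added as 10 µL at 10 µg/mL for 1 h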
Procedure: as §3

[12] = target: T2, soluble form of GPC3 core protein; assay: competitive ELISA on coated soluble GPC3 core protein; labelled competitor biotin-M3C11;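 also: Biotin-labelled antibody added as 10 µL at 10 µg/mL for 1 h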
Procedure: as §3

[13] = target: T1, full-length human GPC3; assay: flow cytometry, antibody at 5 µg/mL, CHO cells expressing human GPC3 (column CHO/human GPC3)
[14] = target: T2, soluble form of GPC3 core protein; assay: ELISA on GPC3 (the legend says only GPC3; the filing's ELISA uses plates coated with soluble GPC3 core protein) [upper panel]

T1 sequence (P51654 25-554 limits assumed): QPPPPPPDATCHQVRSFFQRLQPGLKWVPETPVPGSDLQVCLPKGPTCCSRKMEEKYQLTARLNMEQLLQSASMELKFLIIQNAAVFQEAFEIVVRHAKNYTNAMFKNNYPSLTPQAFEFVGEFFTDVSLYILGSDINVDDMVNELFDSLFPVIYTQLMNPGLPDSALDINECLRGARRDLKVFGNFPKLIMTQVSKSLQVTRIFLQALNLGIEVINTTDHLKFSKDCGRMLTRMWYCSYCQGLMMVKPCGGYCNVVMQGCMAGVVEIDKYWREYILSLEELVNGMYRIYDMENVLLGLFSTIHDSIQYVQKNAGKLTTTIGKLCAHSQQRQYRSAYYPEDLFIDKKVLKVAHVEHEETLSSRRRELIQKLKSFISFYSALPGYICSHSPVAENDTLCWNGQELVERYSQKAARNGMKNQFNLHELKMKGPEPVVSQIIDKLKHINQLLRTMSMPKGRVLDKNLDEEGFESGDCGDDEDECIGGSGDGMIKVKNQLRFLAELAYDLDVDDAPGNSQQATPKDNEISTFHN

Row | Binder | FACS X-mode value of the histogram [1] | FACS X-mode value of the histogram [2] | EC50 [3] [nM] | Kd [4] [nM] | koff [4] [s⁻¹] | kon [4] [M⁻¹ s⁻¹] | Inhibition of the binding of indicated biotin-Mab to sGPC3 core (%) [5] [%] | Inhibition of the binding of indicated biotin-Mab to sGPC3 core (%) [6] [%] | Inhibition of the binding of indicated biotin-Mab to sGPC3 core (%) [7] [%] | Inhibition of the binding of indicated biotin-Mab to sGPC3 core (%) [8] [%] | Inhibition of the binding of indicated biotin-Mab to sGPC3 core (%) [9] [%] | Inhibition of the binding of indicated biotin-Mab to sGPC3 core (%) [10] [%] | Inhibition of the binding of indicated biotin-Mab to sGPC3 core (%) [11] [%] | Inhibition of the binding of indicated biotin-Mab to sGPC3 core (%) [12] [%] | FACS X-mode value of the histogram [13] | EC50 (read off the curve) [14] [µg/mL]
1 | B1 | 20 | 2 | 0.85 | 6.2 | 0.000496 | 80000 | 0.5 | 89.4 | 38.6 | 6.7 | 19.1 | -0.3 | 89 | 0.2 | 22 | 
2 | B2 | 23 | 2 | 1.13 | 23.5 | 0.00139 | 60000 | 2.7 | 77.3 | 23.2 | 10.3 | 13.4 | 5.3 | 77.3 | 0.1 | 25 | 
3 | B3 | 29 | 3 | 1.04 | 4.7 | 0.000496 | 110000 | 0.6 | -10.3 | -5.9 | 7.2 | 79.2 | 7.8 | -21.6 | -7.7 | 20 | 
4 | B4 |  |  | 0.25 |  |  |  | 95.7 | -1.8 | 9.3 | 24.9 | 22.3 | 15.6 | 2.7 | 71.3 |  | 
5 | B5 |  |  |  |  |  |  |  |  |  |  |  |  |  |  |  | ~0.01
6 | B6 |  |  |  |  |  |  |  |  |  |  |  |  |  |  |  | ~0.01
7 | B7 |  |  |  |  |  |  |  |  |  |  |  |  |  |  |  | ~0.1
8 | B8 |  |  |  |  |  |  |  |  |  |  |  |  |  |  |  | ~0.01
9 | B9 | 34 | 3 | 5.51 |  |  |  | -2.7 | 44.4 | 85.6 | 1.1 | 6.7 | 13.9 | 51.9 | -5.7 | 37 | 
